Measured values from patent US20120277161A1, “INHIBITION OF MULTIPLE CELL ACTIVATION PATHWAYS” (INTER-K PTY LIMITED, priority 2009, published 2012).
Ends that are not written are not given here.

Key:
[1] = biological target: MEK1 (h) (human) (UniProt Q02750); test: cell-based or functional assay
[2] = biological target: human ERK2 (human) (UniProt P28482); test: cell-based or functional assay
Sequence of human ERK2 (human) (P28482 whole entry): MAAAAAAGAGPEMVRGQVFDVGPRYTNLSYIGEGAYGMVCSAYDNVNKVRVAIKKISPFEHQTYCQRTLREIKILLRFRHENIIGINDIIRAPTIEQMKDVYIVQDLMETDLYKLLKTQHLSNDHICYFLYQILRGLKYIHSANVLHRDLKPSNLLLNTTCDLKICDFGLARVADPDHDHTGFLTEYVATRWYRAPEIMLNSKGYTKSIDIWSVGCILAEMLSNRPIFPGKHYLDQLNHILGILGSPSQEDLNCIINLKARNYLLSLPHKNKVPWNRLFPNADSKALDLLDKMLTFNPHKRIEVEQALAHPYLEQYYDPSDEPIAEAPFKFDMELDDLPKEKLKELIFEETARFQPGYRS

% inhibition of kinase activity, cell-free assay, dendrimer at 20 µM [1]: 92 % inhibition | % inhibition of kinase activity, cell-free assay, dendrimer at 20 µM [2]: 96 % inhibition
Binder: RSRARNPLYR (peptide, part only, also: 10 copies on 10-mer dendrimer framework) [peptide dendrimer Dend 10β5 presenting 10 monomer units of the β5 integrin derived peptide …]
